Molecular target: MIWI (Mus musculus, UniProt Q9JMB7 1-862)
Test: double-filter binding; piRNA-1 guide; 3.5 mM Mg2+; RBNS: 25 mM HEPES-KOH pH 7.9, 110 mM KOAc, 3.5 mM MgOAc, 0.01% Triton X-100, 2 mM DTT, 10% glycerol, 2.5 mg/ml BSA, 0.5 mg/ml yeast tRNA, 100 nM RNA library, 33 C 2 h; double-filter: 30 mM HEPES-KOH pH 7.5, 120 mM KOAc, 3.5 mM MgOAc, 2 mM DTT, 0.01% Triton X-100, 0.1 nM target, 33 C 2 h
Details: protein: recombinant, tags: SNAP, 3xFlag, label: 5' 32P

Chain of MIWI (Q9JMB7 whole entry): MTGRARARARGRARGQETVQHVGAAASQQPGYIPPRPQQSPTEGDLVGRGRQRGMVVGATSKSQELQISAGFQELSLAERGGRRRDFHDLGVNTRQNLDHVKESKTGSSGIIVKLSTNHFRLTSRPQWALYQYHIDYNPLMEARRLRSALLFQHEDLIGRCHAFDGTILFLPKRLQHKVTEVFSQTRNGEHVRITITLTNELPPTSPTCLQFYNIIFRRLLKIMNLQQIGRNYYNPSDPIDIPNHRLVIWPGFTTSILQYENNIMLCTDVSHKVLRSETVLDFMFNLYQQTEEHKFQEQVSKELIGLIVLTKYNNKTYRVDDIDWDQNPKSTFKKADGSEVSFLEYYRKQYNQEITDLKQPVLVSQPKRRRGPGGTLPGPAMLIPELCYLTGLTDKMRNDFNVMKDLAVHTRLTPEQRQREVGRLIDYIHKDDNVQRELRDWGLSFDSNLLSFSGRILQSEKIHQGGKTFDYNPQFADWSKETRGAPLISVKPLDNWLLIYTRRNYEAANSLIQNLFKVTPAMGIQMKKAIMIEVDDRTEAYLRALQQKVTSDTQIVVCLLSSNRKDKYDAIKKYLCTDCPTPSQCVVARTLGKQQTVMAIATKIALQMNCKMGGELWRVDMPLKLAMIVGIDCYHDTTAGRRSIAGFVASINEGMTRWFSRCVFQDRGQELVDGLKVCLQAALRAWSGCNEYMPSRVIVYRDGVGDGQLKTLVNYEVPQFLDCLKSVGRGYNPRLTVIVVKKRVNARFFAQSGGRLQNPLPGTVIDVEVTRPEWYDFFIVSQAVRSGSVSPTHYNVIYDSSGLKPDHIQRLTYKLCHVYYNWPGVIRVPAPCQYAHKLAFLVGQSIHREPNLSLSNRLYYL

| Binder | Kd (target pairs to guide g2-g10) [pM] | Kd (target pairs to guide g8-g16) [pM] |
| --- | --- | --- |
| AAAAAAAAAAAAAAAAAAAAUACUACCUCA (ssRNA, 5' monophosphate) [piRNA-1 g2-g10 target] | 14 ± 9 | – |
| AAAAAAAAAAAAAAACAACCUACAAAAAAA (ssRNA, 5' monophosphate) [piRNA-1 g8-g16 target] | – | 80 ± 20 |

Source: PMC10338343, “Relaxed targeting rules help PIWI proteins silence transposons”
